Experiment: soluble on expression in E. coli; label from the status in PepcDB or PDB records

Row | Sequence | soluble on expression in E. coli
1 | MGSDKIHHHHHHMTLKKLRANDRMKQIMAGYYMMGNQAEVKGWITSGAPVELLYAMDIYPVYPENHGALIGAAKQGPYFSDFAERKGFSRDLCSYARCDIGCVFAGTSPIGGLPEPTFLFACNNICNTVVKWYEVLSRIFKVPLFVLDTPFVRKELKESYVKYVHDQLYEFVDFLEKTTGRELSDSKLRDTVIKSIQGVKAYAEVLGMARHKPSPLTCFDAFINMAPIVCLRGTDYPVQFYAEMKEELEERVKRGEGAIENEEIRLLWDNIPVWYRLKWFSEFFAERNACLVADTYTNAWTGFISIDKSDIFWSMAETYTFIYLNIGLEHMAEAINRLIDYYDVDGAVIHSNRSCKPYSFGQYELQKMIEVPSVIIEADMVDSRTFSEAQVETRLEAFLEMLR | not soluble
2 | MGSDKIHHHHHHMIMQLDCALYQHPKLITVFGGSGFVGRHVVEALTKRGYRVRIAVRSPQKAYYMLQIGEVGQTQMLRTDIKCRASVARALLGSDGAVFLPGSLAQANQPNFQKTQIEGAQNVSELTAEAGIPLIYMSALVANKNASFLYARVKSMSEEIIHNEHPQAIIMRPSIIFGPEDCFFNNLANLSCFLPIIPLFGGGQSKLQPVYVGDVAEFIVRALEGQVISGKSYDLGGPQIITFQNVLEYILKIIHRKKTILSMPLSAGLFIGGLLGTIGKLPLAPTLVTASQIRFLQIDNIVSQEAIENGYTLEGVGITPKAMAALLPSYLWRFRPHGQFSRNLPA | not soluble
3 | MGSDKIHHHHHHMGTVLIHVCCAPDLLTTIFHVRDAEFFFYNPNIQPLSEYEKRREAVDKVANHFSLNVRYGEYSTEEIRKWYTAVKDYKDLGEGSKRCERCISFLLERTAQEARKRGHESFSTTLLASPRKNLPMIENIGKTIEEKYGVKFFFKNFRKGGAYQEGVRLSKELGIYRQNYCGCVFSLLERREKHAEISRKRGHM | not soluble
4 | MSHSLRYFVTAVSRPGFGEPRYMEVGYVDNTEFVRFDSDAENPRYEPRARWIEQEGPEYWERETRRAKGNEQSFRVDLRTALRYYNQSAGGSHTLQWMAGCDVESDGRLLRGYWQFAYDGCDYIALNEDLKTWTAADMAAQITRRKWEQAGAAERDRAYLEGECVEWLRRYLKNGNATLLRTDPPKAHVTHHRRPEGDVTLRCWALGFYPADITLTWQLNGEELTQEMELVETRPAGDGTFQKWASVVVPLGKEQKYTCHVEHEGLPEPLTLRWGKE | soluble
5 | MGHHHHHHSHMNLGKESRAQTLQNGRRHIHHLGNQLQLNQHCLDTAFNFFKMAVSRHLTRGRKMAHVIAACLYLVCRTEGTPHMLLDLSDLLQVNVYVLGKTFLLLARELCINAPAIDPCLYIPRFAHLLEFGEKNHEVSMTALRLLQRMKRDWMHTGRRPSGLCGAALLVAARMHDFRRTVKEVISVVKVCESTLRKRLTEFEDTPTSQLTIDEF | not soluble
6 | MVADRFSHVRGWVFDLDNTLYPPSARLFDQIERRMTDWVMTELRVVREEADRLRRHYWSTYGTTLAGLMAEHGVDPAPYLSHVHDISLDHLERDMILAARIRALPGRKIVYTNGCAPYAERVLEARGLANLFDAVYGVEHAGFRPKPDRAAFETVFAADRLAPGTAAMFEDDSRNLLAPHEMGMRTVHVAPEALPAPHIHHHTLDLSEFLALLQP | not soluble
7 | MPATAYERVVYKSPSEYHYMKVCLEFQEHGVGLNVAQFKQLLVSALRDLFGEVGAALPVDVLTYDEKTLSAILRICSSGLVKLWSSLTLFGAYKSKKCAFRVIQVSPFLLALSGNSREQVLD | not soluble
8 | MNHKAFAKFPSSASISPNPFTVSIPDEQLDDLKTLVRLSKIAPPTYESLQADGRFGITSEWLTTMREKWLSEFDWRPFEARLNSFPQFTTEIEGLTIHFAALFSEREDAVPIALLHGWPGSFVEFYPILQLFREEYTPETLPFHLVVPSLPGYTFSSGPPLDKDFGLMDNARVVDQLMKDLGFGSGYIIQGGDIGSFVGRLLGVGFDACKAVHLNFCNMSAPPEGPSIESLSAAEKEGIARMEKFMTDGYAYAMEHSTRPSTIGHVLSSSPIALLAWIGEKYLQWVDKPLPSETILEMVSLYWLTESFPRAIHTYREWVPTASAPNGATPYQKELYIHKPFGFSFFPKDLVPVPRSWIATTGNLVFFRDHAEGGHFAALERPRELKTDLTAFVEQVWQKGRSHHHHHH | soluble
9 | TAALVINANPFTLGHQYLVEKAAAENELLHLFMVSDDSSLIPFSVRKQLILAGTEHLSNICYHETGPYIISKSIFPSYFQKDQASVIESQARIDLAIFIQIAKYLGIKGRYVGEEPTSLVTGIYNQIMLQELPKQAIDCIVVPRKTYKDGPISASTVRKALKEGNEQILRELLPSTSLNYFLSPEAQPLIKKIQKADNVIHY | not soluble
10 | MPGQPFGVYLHVPFCLTRCGYCDFNTYTPAQLGGVSPDRWLLALRAELELAAAKLDAPTVHTVYVGGGTPSLLGGERLATLLDMVRDHFVLAPDAEVSTEANPESTWPEFFATIRAAGYTRVSLGMQSVAPRVLATLDRVHSPGRAAAAATEAIAEGFTHVNLDLIYGTPGESDDDLVRSVDAAVQAGVDHVSAYALVVEHGTALARRVRRGELAAPDDDVLAHRYELVDARLSAAGFAWYEVSNWCRPGGECRHNLGYWDGGQWWGAGPGAHGYIGVTRWWNVKHPNTYAEILAGATLPVAGFEQLGADALHTEDVLLKVRLRQGLPLARLGAAERERAEAVLADGLLDYHGDRLVLTGRGRLLADAVVRTLLG | not soluble
11 | MCGRIAQKSAPEDYVEILWPNARLIFDDVAGPRYNIPPGTKPLTMHRLAGGFEVDRQWWTWRPSGSKYAMNCARLDKILGNKWPWKLLTARGRILVPADGWYEWKALDSSPKPAKQPYFIHGAGPLLFAGLSAWRPGAEMDEAHGFAIVTDDAQGGMVDVHDRRPVALPPELAREWVDPATPVARAMEILRAGLPETAFSWHPVRQEVGSSKYQLPDAIDPILEHHHHHH | soluble
12 | MGSDKIHHHHHHMVNIEIDEGSGFCFGVTTAIRKAEEELAKGNTLYCLGDIVHNGQECERLKKMGLITINHEEFAQLHDAKVLLRAHGEPPETYAIARTNNIEIIDATCPVVLRLQKRIKQEYDNVPASQDTQIVIYGKNGHAEVLGLVGQTHGKAIVIETPAEAAHLDFTKDIRLYSQTTKSLEEFWQIIEYIKEHISPDATFEYYDTICRQVANRMPNIRKFAAAHDLIFFVCGRKSSNGKILYQECKKINPNSYLIDQPEEIDRNLLEDVRSIGICGATSTPKWLMEECKKAILNEK | not soluble
13 | MEKIMPEEEYSEFKELILQKELHVVYALSHVCGQDRTLLASILLRIFLHEKLESLLLCTLNDREISMEDEATTLFRATTLASTLMEQYMKATATQFVHHALKDSILKIMESKQSCELSPSKLEKNEDVNTNLTHLLNILSELVEKIFMASEILPPTLRYIYGCLQKSVQHKWPTNTTMRTRVVSGFVFLRLICPAILNPRMFNIISDSPSPIAARTLILVAKSVQNLANLVEFGAKEPYMEGVNPFIKSNKHRMIMFLDELGNVPELPDTTEHSRTDLSRDLAALHEICVAHSDELRTLSNERGAQQHVLKKLLAITELLQQKQNQYTKTNDVR | soluble
14 | GSRIAKRTAINKTKKADVKAIADAWQINGEKELELLQQIAQKPGALRILNHSLRLAAMTAHGKGERVNEDYLRQAFRELDLDVDISTLLRN | soluble
15 | VPQIDTRDCGPAVLASVAKHYGSNYSIAYLRELSKTNKQGTTALGIVEAAKKLGFETRSIKADMTLFDYNDLTYPFIVHVIKGKRLQHYYVVYGSQNNQLIIGDPDPSVKVTRMSKERFQSEWTGLAIFLAPQPN | not soluble
16 | MKIFLENLYHSDCYFLPIRDNQQVLVGVELITHFSSEDGTVRIPTSRVIAQLTEEQHWQLFSEQLELLKSCQHFFIQHKLFAWLNLTPQVATLLLERDNYAGELLKYPFIELLINENYPHLNEGKDNRGLLSLSQVYPLVLGNLGAGNSTMKAVFDGLFTRVMLDKSFIQQQITHRSFEPFIRAIQAQISPCCNCIIAGGIDTAEILAQITPFDFHALQGCLWPAVPINQITTLVQR | not soluble
17 | MGHHHHHHSHMDSTTVNYFALFEVISHSFVRKLAPNEFPHKLYIQNYTSAVPGTCLTIRKWLFTTEEEILLNDNDLAVTYFFHQAVDDVKKGYIKAEEKSYQLQKLYEQRKMVMYLNMLRTCEGYNEIIFPHCACDSRRKGHVITAISITHFKLHACTEEGQLENQVIAFEWDEMQRWDTDEEGMAFCFEYARGEKKPRWVKIFTPYFNYMHECFERVFCELKWRKEEY | not soluble
18 | MGSDKIHHHHHHMMAFITVKPEIKNNLANVAKELKIDEELLKSANRSAQKHQLYCPGYVIEEHSGKELQTIQDIKRFLQPRQLKLSDSWIEQEKIYDDSAVEKEIKKIIDVFPFVSCREIGRSVLGRPIWELKAGGEHAVKKVHMNASFHANEWITTSVLLKWFKEYCMSLCCNSPFFGFSPIKLFNSTSLSLVPLVNPDGVDLVLNGSEVMGARRDELERLNEHRPNFNEWKANINGVDLNKQFPSLWEIEKYRKPTAPSYRDFPGISPLTEPESIAMYRLITENPPDRLLALHTQGEEIYWGYKGLEPEESAAVIKEFEELSGNIYKGVRDIDSYAGFRDWFIHHYFKEGYTVELGKGQNPLPFQQFSHIYNATSGILWRALFFHE | not soluble
19 | MAHHHHHHMQVTETVLARAVIKRRSPQLWGAPGAPIIRMRGHHVVWKFQSYDLVVEHTHKRRNSDIRLLHYLGKHCPHPQKSLWSPDTPVAQDRHLFMLTTVDIDAFKYWFGVKRCRLSMKPWALLAKAGLLPPSLTQNSKIMPKPLFDKESLMRYYLANRKDEDVMAREKYLNYENSMVKTEEERAAERPVAPYL | soluble
20 | MSNVMDLNLIQTFLVVAEFQSYTKAAEQLGLTQPAVSAAIKRLEQVVDKQLFVKKGRGITLTSAAYQLLPQFEQAVSIIDNAIMEKKHFEVCCSEILLHIMSPIKNAIFYESPPEKYILFELLRQQKVDLVIDTVVTKDAAFVMEEAYEEKAVIICREQHPRIQGTLSKEQFYDETHCLFSGKWNNMSGFEQLAQETILER | not soluble
21 | MSLNSAMDKILVVNEGGELLRFKAMQQDLLYESLLKNHCYHTAYYLNSFDRLSLQENRARALFLVNKPDANTIFAKYQADRGYGDALELGVVYRTEFEKMLSVSVSGEEYHVTFSSVLSIINGNDVRKIRILSEGTVIRTTPRFPENTSGFFFRTYNQQYEMEGHHHHHH | soluble
22 | MGHHHHHHSHVEIIQKVVVKQILTEASKQELIEYYTEQKRQIEQECDQLHFEQKKMERKSKFQPERVADYFTHELDIRREKKKLIQFQMEQLEVLELGSEIREREMETIIDVQVGDKWDKSIFDKTIVVKDGIIVEIR | soluble
23 | MTMETVESQHDGSITASLTESKSAHVQTQTGQNSIPALAQVAAIAETDESAESGGVIDSHKRREILSRRPSYRKILNELSSDVPGVPKIEEERSEEEGTPPSIATMAVPTSIYQTSTGQYIAIAQGGTIQISNPGSDGVQGLQALTMTNSGAPPPGATIVQYAAQSADGTQQFFVPGSQVVVQAATGDMPTYQIRAPTAALPQGVVMAASPGSLHSPQQLAEEATRKRELRLMKNREAAKECRRRKKE | soluble
24 | MSLQVSKFKNLPKIELHLHLDCSLSYDVVKKIDPTVDIKHYKSSFQAGESCSSLKDYLKCADNAIELMQTKENLQFIVEDLFKQLHDDNVIYAEIRFAPLLHCEGDLNAKKVVDIICMSALIQSKKYNIDYGLILCTLRHYSEDESLKTVKLVKEFSEKGVVGFDIAADEAGYPIDNHIKAFTYAKNNNLNITAHAGEAKGSESIWETINKLYAKRIGHGVRCLEDKKLVKFLSDNNYHLEICLTSNIKTNTFDLFTDHPINEIYDSSISLSLNTDGRAISNTSLSKEYAIAHSELNWSMKKIIQSNLNAIEHAFTTNEKKEKLRKHLKSFSEGHHHHHH | soluble

— the DeepSol protein solubility set
